Data reported in PMC9475553, “SHF Acts as a Novel Tumor Suppressor in Glioblastoma Multiforme by Disrupting STAT3 Dimerization” (Advanced Science, 2022).

Columns and labels:
immobilized STAT3 = immobilized STAT3 (Homo sapiens, UniProt P40763); assay: Static adsorption equilibrium assay, immobilized STAT3; type: binding
Excerpt: Considering that the SH2 domain predominantly represents the inhibition of SHF on STAT3 dimerization and activity, we speculated that this domain may be an optional target for GBM suppression. To this end, we analyzed the mechanical interaction of SHF and STAT3. The structures of human SHF (aa265‐421) and STAT3 (aa130‐715). both of which spanned their respective SH2 domain. were simulated by Swiss‐Model server (https://swissmodel.expasy.org/). To simulate the interaction of SHF and STAT3, Discovery studio 2018 was employed to complete protein‐protein docking using ZDOCK as an initial stage. A rigid body molecular docking algorithm utilizing a fast Fourier transform (FFT) algorithm was used to further improve performance for searching in translational space. All the available structures from PDB were used to calculate the docking poses and the structures obtained were subjected to energy minimization filtration using the smart minimize algorithm (Max steps 200, RMS gradient 0.01). The highest resulting ZDock score was used as the appropriate conformational pose. […] Since these two spots are located closely to one another, the sequence spanning amino acids 388–421 was used as a peptide design master. To obtain a peptide with high internalization efficiency and a strong half‐life, we introduced a palmitic acid at the N‐terminus of the master sequence and amidated the C‐terminus. The designed peptide was named C16. A scrambled peptide containing a scrambled sequence targeting Spot1 was named SC and served as a negative control peptide. […] The static adsorption equilibrium experiment of immobilized STAT3 peptide was used to detect the binding rate of the synthesized peptide with STAT3 (Figure 7C). The concentration of immobilized STAT3 used was 85 nmol g^−1 wet gel. […] Thus, C16 acted as a powerful inhibitor of STAT3 dimerization and associated activity. Next, we determined the implication of C16 in tumor inhibition. […] A concentration of 25 uM was determined to be adequate for use in the subsequent experiments. […] Further, the impact of C16 on tumor propagation was examined in an intracranial xenograft model. U87 cells expressing luciferase were implanted into mouse brains. The mice were injected intraperitoneally (i.p.) with C16 or SC once every 2 days from the third day after cell transplantation. […] To investigate the effect of C16 on cell proliferation, EdU was injected 24 h prior to sacrifice.
Figure 7 Peptide derived from the STAT3‐binding sites of SHF is an effective GBM suppressive strategy. A) Binding model between SHF and STAT3 using ZDOCK server. […] B) IF staining determined the cell penetrability and nuclear‐localization of C16. U251 cells were incubated with C16 or SC for 2 h and performed IF staining using the indicated antibodies. Bars, 10 µm. C) The statical analysis of adsorption equilibrium assay detecting the binding of C16 and SC with recombinant STAT3. D) Pull‐down assay indicating C16 binds STAT3. GST‐STAT3 was incubated with C16 or SC for 2 h, and the pull‐down assay was performed using Anti‐His magnetic beads. E) IP assay showing the effect of C16 on STAT3 dimerization. 293T cells transfected with indicated vectors were incubated with C16 for 2 h. The relative quantification of STAT3 dimerization was listed. F) IP assay detecting the effect of C16 on the interaction of STAT3 and DNMT1. […] The relative quantification of STAT3/DNMT1 interaction was listed. […] The relative quantification of STAT3/DNMT1 interaction was listed. […]

GST-STAT3 = assay: Pull-down assay, GST-STAT3 with peptide; type: binding; conditions: GST-STAT3 incubated with C16 or SC for 2 h; Anti-His magnetic beads
Experimental: Figure 7 Peptide derived from the STAT3‐binding sites of SHF is an effective GBM suppressive strategy. A) Binding model between SHF and STAT3 using ZDOCK server. […] B) IF staining determined the cell penetrability and nuclear‐localization of C16. U251 cells were incubated with C16 or SC for 2 h and performed IF staining using the indicated antibodies. Bars, 10 µm. C) The statical analysis of adsorption equilibrium assay detecting the binding of C16 and SC with recombinant STAT3. D) Pull‐down assay indicating C16 binds STAT3. GST‐STAT3 was incubated with C16 or SC for 2 h, and the pull‐down assay was performed using Anti‐His magnetic beads. E) IP assay showing the effect of C16 on STAT3 dimerization. 293T cells transfected with indicated vectors were incubated with C16 for 2 h. The relative quantification of STAT3 dimerization was listed. F) IP assay detecting the effect of C16 on the interaction of STAT3 and DNMT1. […] The relative quantification of STAT3/DNMT1 interaction was listed. […] The relative quantification of STAT3/DNMT1 interaction was listed. […] Positive cells were quantified 20 randomly selected fields per mouse (n = 6, Student's t‐test, **p < 0.01). […]
Immunoprecipitation (IP) experiments were performed to analyze the protein interactions. […] Precipitated products were analyzed by Western blot using the specified antibodies. […]

Sequence of immobilized STAT3 (P40763 whole entry, the tested form may be a part): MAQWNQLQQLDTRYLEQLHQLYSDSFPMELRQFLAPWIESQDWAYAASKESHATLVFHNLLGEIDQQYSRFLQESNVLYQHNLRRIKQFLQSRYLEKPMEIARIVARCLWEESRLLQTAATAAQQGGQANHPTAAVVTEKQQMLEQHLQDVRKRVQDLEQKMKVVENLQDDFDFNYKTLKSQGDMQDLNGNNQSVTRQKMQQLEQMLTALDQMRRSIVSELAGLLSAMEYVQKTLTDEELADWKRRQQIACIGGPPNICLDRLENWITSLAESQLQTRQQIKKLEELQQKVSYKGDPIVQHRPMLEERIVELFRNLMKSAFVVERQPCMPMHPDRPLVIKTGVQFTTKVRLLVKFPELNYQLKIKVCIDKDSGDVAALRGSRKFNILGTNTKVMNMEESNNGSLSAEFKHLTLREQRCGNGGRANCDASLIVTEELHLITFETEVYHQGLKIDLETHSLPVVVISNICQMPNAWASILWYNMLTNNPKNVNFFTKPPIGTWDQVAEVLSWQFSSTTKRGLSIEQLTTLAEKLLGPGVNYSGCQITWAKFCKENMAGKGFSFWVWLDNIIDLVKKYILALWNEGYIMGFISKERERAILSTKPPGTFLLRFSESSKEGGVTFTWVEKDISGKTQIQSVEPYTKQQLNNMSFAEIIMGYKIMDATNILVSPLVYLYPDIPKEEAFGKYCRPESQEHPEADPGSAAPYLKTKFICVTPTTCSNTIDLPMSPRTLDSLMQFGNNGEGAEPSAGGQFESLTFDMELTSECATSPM

Q: How did the “maximum static adsorption (Qmax)” value (immobilized STAT3; immobilized STAT3 85 nmol g^−1 wet gel, peptide 2-20 µM in PBS, stirred 12 h, free peptide by NanoDrop absorbance 240 nm, Langmuir isotherm, mean ± SD) turn out when “C16: peptide spanning SHF amino acids 388–421, palmitic acid at the N-terminus, amidated C-terminus, 3× His tags added to the C-terminal (PFSSVPEIVHHYASRKLPIKGAEHMSLLYPVAIR; palmitic acid at the N-terminus; amidated C-terminus; left off: 3× His tags, C-terminal, kept)” was run?
A: 86.13 ± 0.18 nmol g^−1 wet gel

Q: And the Kd (immobilized STAT3; immobilized STAT3 85 nmol g^−1 wet gel, peptide 2-20 µM in PBS, stirred 12 h, free peptide by NanoDrop absorbance 240 nm, Langmuir isotherm, mean ± SD, read-out: equilibrium dissociation constant KD)?
A: 80 ± 20 nM

Q: What about the “interaction model (stoichiometry) with STAT3” value (immobilized STAT3; maximum adsorption compared with actual amount of immobilized STAT3) of the same substance?
A: 1:1 interaction model

Q: And the “KD of C16 compared with that of the SC peptide” value (immobilized STAT3; static adsorption on immobilized STAT3, C16 vs SC)?
A: two orders of magnitude lower than that of the SC peptide

Q: What about the “STAT3 binding in pull-down / in vitro IP” value (GST-STAT3) of the same substance?
A: contains the STAT3 binding capacity
